# Earlier results in paper PMC9084902, “Low-Molecular Weight Protamine Overcomes Chondroitin Sulfate Inhibition of Neural Regeneration” (Frontiers in Cell and Developmental Biology, 2022).
# How the values were obtained:
# CNS neurons = conditions: aggrecan and a CSPG mixture isolated from brain; ref Paveliev et al., 2016; cited from earlier work
# From the text: (§1) Our candidate protein to overcome the CS inhibition on neurite outgrowth and regeneration has been HB-GAM (heparin-binding growth-associated molecule; pleiotrophin) that was initially isolated by screening for factors from juvenile rat brain that enhance neurite outgrowth in CNS neurons ([Rauvala, 1989]; [Li et al., 1990]; [Merenmies and Rauvala, 1990]). […] Furthermore, we have recently shown t ...
# [1] = tested on: hemisection and hemicontusion spinal cord injury models; conditions: mice; ref Kulesskaya et al., 2021; cited from earlier work
# From the text: as §1
# [2] = ref Rauvala, 1989; cited from earlier work
# From the text: Protamine is a small 33 amino acid long protein that takes part in DNA packing during spermatogenesis ([Kasinsky et al., 2011]). Over 60% of the salmon protamine sequence is comprised of arginines so that it interacts strongly with negatively charged DNA phosphates in vivo and potentially with any other negatively charged molecules. […] Protamine sulfate is therefore widely used as a drug in cardiopulmonary bypass surgery to stop the effect of heparin ([Kaneda et al., 2005]; [Bromfield et al. ... || The CS chains even enhance the neurite outgrowth-promoting effect of HB-GAM, and we have ended up in a model according to which the CS chains of the CSPGs display a positive role by concentrating HB-GAM on the matrix and presenting it to neuron surface receptors. According to our model, two polycationic regions separated by a linker are essential to reverse the CS inhibition of neurite outgrowth ([Paveliev et al., 2016]; [Rauvala et al., 2017]). To test our hypothesis we decided to search for peptide structures that are similar to HB-GAM and display similar binding properties. Protamine displa ...
# glypican-1 = conditions: through heparan sulfate chains; ref Paveliev et al., 2016; cited from earlier work
# From the text: In the case of HB-GAM we have identified glypican-1 as a neuron surface receptor using unbiased mass spectrometry search of neuron binding sites for the substrate-attached HB-GAM ([Paveliev et al., 2016]). […] Interaction of glypican-1 with LMWP also appears likely since LMWP binds to heparin/heparan sulfate chains. Another possible cell surface receptor of LMWP is the transmembrane receptor PTPRZ (protein tyrosine ph ...
molecule,measurement,setting,value
"heparin-binding growth-associated molecule (protein, UniProt P63090 33-168, looked up, initially isolated by screening for factors from juvenile rat brain that enhance neurite outgrowth in CNS neurons) Pleiotrophin: GKKEKPEKKVKKSDCGEWQWSVCVPTSGDCGLGTREGTRTGAECKQTMKTQRCKIPCNWKKQFGAECKYQFQAWGECDLNTALKTRTGSLKRALHNADCQKTVTISKPCGKLTKPKPQAESKKKKKEGKKQEKMLD",neurite outgrowth on CSPG substrates,CNS neurons,overcomes the CS inhibition and enhances neurite outgrowth on CSPG substrates
same,functional recovery after spinal cord injury,[1],enhances functional recovery in hemisection and hemicontusion spinal cord injury models in mice
same,binding to heparin,[2],binds avidly to heparin
same,binding to glypican-1,glypican-1,binds to HB-GAM through its heparan sulfate chains
